Values of other authors, collected in paper PMC10953113 (Biomedicine & pharmacotherapy = Biomedecine & …, 2024).

Settings: no reference given

## Arginine vasopressin [AVP]
  half-life (T1/2): ~ 10 min
